The values below come from PMC5014086 (2016).

What all share (experiment): SPR
Assay [1] deals with T1, wild-type KRM1ECD as immobilised for SPR (human, UniProt Q96MU8 21-392).
T1 chain: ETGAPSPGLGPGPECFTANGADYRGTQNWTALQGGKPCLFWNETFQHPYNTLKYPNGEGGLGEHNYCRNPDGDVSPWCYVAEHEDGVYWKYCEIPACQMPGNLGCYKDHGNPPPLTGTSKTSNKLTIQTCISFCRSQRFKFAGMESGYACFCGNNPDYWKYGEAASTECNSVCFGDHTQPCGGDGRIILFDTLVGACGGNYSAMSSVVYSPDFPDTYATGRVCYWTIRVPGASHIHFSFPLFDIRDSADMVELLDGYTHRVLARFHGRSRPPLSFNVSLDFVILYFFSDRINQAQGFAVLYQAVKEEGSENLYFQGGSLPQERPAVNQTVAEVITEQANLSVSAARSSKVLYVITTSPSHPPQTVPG

Assay [2] has as its target T1, wild-type KRM1ECD as immobilised for SPR.
The target of the next assay is T2, LRP6_(PE1PE2) fragment.
T2 chain: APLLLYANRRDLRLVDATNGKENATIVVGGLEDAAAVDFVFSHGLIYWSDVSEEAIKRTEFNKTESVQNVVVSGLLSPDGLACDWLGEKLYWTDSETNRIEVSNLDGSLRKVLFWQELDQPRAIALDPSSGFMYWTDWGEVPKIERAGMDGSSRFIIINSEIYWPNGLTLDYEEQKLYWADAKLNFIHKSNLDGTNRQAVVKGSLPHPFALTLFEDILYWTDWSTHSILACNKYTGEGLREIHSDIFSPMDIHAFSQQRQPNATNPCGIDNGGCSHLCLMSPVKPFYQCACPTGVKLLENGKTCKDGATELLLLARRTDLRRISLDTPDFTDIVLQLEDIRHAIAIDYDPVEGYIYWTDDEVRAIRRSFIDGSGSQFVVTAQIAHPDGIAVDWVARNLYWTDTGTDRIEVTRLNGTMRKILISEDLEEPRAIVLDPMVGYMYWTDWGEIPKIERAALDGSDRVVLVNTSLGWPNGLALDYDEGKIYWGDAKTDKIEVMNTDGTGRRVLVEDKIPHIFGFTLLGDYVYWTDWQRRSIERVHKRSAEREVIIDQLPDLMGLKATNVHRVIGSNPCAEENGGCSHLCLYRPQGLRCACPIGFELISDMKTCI
Particulars: chain shown with the change; 25 µM LRP6PE1PE2 (highest concentration of the titration); parent: est. 100; read off a plot.

Assay [3] addresses T3, GlycoCUB mutant of KRM1ECD (309NQA311→NQS, N-glycan at N309) (human, UniProt Q96MU8 21-392, 309NQA311→NQS, additional N-glycan at N309).
T3 sequence: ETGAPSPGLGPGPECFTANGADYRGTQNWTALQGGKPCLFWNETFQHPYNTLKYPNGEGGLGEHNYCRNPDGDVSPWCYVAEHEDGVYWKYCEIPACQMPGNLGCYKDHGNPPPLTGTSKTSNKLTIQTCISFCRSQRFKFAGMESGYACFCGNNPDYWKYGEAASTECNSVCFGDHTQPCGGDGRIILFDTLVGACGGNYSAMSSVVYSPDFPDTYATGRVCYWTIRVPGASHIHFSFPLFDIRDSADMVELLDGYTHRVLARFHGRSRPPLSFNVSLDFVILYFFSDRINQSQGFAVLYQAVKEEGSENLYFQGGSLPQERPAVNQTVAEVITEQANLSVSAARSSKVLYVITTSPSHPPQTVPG

Like-named read-outs stand apart in the source and are kept apart here.

B1: SUMO-DKK1_(Linker-CRD2), SUMO fusion as SPR analyte (domain or fragment)
chain: SDQNHFRGEIEETITESFGNDHSTLDGYSRRTTLSSKMYHTKGQEGSVCLRSSDCASGLCCARHFWSKICKPVLKEGQVCTKHRRKGSHGLEIFQRCYCGEGLSCRIQKDHHQASNSSRLHTCQRH
Molecule B1 registered a Kd in assay [1] of 0.4 µM.

B2: LRP6_(PE1PE2) fragment (domain or fragment)
chain: APLLLYANRRDLRLVDATNGKENATIVVGGLEDAAAVDFVFSHGLIYWSDVSEEAIKRTEFNKTESVQNVVVSGLLSPDGLACDWLGEKLYWTDSETNRIEVSNLDGSLRKVLFWQELDQPRAIALDPSSGFMYWTDWGEVPKIERAGMDGSSRFIIINSEIYWPNGLTLDYEEQKLYWADAKLNFIHKSNLDGTNRQAVVKGSLPHPFALTLFEDILYWTDWSTHSILACNKYTGEGLREIHSDIFSPMDIHAFSQQRQPNATNPCGIDNGGCSHLCLMSPVKPFYQCACPTGVKLLENGKTCKDGATELLLLARRTDLRRISLDTPDFTDIVLQLEDIRHAIAIDYDPVEGYIYWTDDEVRAIRRSFIDGSGSQFVVTAQIAHPDGIAVDWVARNLYWTDTGTDRIEVTRLNGTMRKILISEDLEEPRAIVLDPMVGYMYWTDWGEIPKIERAALDGSDRVVLVNTSLGWPNGLALDYDEGKIYWGDAKTDKIEVMNTDGTGRRVLVEDKIPHIFGFTLLGDYVYWTDWQRRSIERVHKRSAEREVIIDQLPDLMGLKATNVHRVIGSNPCAEENGGCSHLCLYRPQGLRCACPIGFELISDMKTCI
With B2, the Kd in assay [2] was 18.9 µM.

B3: wild-type KRM1ECD as immobilised for SPR, Q96MU8 A311S (protein)
chain: ETGAPSPGLGPGPECFTANGADYRGTQNWTALQGGKPCLFWNETFQHPYNTLKYPNGEGGLGEHNYCRNPDGDVSPWCYVAEHEDGVYWKYCEIPACQMPGNLGCYKDHGNPPPLTGTSKTSNKLTIQTCISFCRSQRFKFAGMESGYACFCGNNPDYWKYGEAASTECNSVCFGDHTQPCGGDGRIILFDTLVGACGGNYSAMSSVVYSPDFPDTYATGRVCYWTIRVPGASHIHFSFPLFDIRDSADMVELLDGYTHRVLARFHGRSRPPLSFNVSLDFVILYFFSDRINQSQGFAVLYQAVKEEGSENLYFQGGSLPQERPAVNQTVAEVITEQANLSVSAARSSKVLYVITTSPSHPPQTVPG
For B3, the response (response units) with LRP6_(PE1PE2) fragment was -20.

B4: full-length DKK1 (ligand)
chain: TLNSVLNSNAIKNLPPPLGGAAGHPGSAVSAAPGILYPGGNKYQTIDNYQPYPCAEDEECGTDEYCASPTRGGDAGVQICLACRKRRKRCMRHAMCCPGNYCKNGICVSSDQNHFRGEIEETITESFGNDHSTLDGYSRRTTLSSKMYHTKGQEGSVCLRSSDCASGLCCARHFWSKICKPVLKEGQVCTKHRRKGSHGLEIFQRCYCGEGLSCRIQKDHHQASNSSRLHTCQRH
In the case of B4, the results for the Kd in assay [3] and in assay [1] were 1.3 µM and 1.2 µM, respectively.
